From article PMC3537886 (Nature structural & molecular biology, 2012)

What was measured:
[1] = molecular target: biotinylated soluble leucine-zippered HLA-DO with αP10aA (bio-szDOv), beta chain with C-terminal Avitag (human) (UniProt P06340); assay: BLI
[2] = molecular target: soluble HLA-DM (sDM), wild type (human, UniProt P28067;P28068); assay: enzyme inhibition kinetics

binding affinity relative to the wild type (fold of the wild-type affinity) [1]	Ki [2] [nM]	Molecule
0.0025		sDM mutant αR98E,R194E (from UniProt P28067;P28068) (complex)
	290 ± 20	soluble HLA-DO Ig-fusion protein (sDO-Fc) (Fc fusion) chain 1: TKADHMGSYGPAFYQSYGASGQFTHEFDEEQLFSVDLKKSEAVWRLPEFGDFARFDPQGGLAGIAAIKAHLDILVERSNRSRAINVPPRVTVLPKSRVELGQPNILICIVDNIFPPVINITWLRNGQTVTEGVAQTSFYSQPDHLFRKFHYLPFVPSAEDVYDCQVEHWGLDAPLLRHWELQVPIPPPDAME chain 2: TDSPEDFVIQAKADCYFTNGTEKVQFVVRFIFNLEEYVRFDSDVGMFVALTKLGQPDAEQWNSRLDLLERSRQAVDGVCRHNYRLGAPFTVGRKVQPEVTVYPERTPLLHQHNLLHCSVTGFYPGDIKIKWFLNGQEERAGVMSTGPIRNGDWTFQTVVMLEMTPELGHVYTCLVDHSSLLSPVSVEWRAQSEYSWRK
